This data set can be described thus: total protein half-life in vivo (active degradation + dilution); higher = more stable protein.
[1] abbreviates: E. coli NCM3722 delta-clpP delta-lon delta-hslV, growth: N-lim chemostat, doubling time 6 h.
The mark [2] stands for this setting: E. coli NCM3722 delta-hslV, growth: N-lim chemostat, doubling time 6 h.
Where [3] appears, read: wild type E. coli NCM3722, growth: N-lim chemostat, doubling time 12 h.
Setting [4] is: E. coli NCM3722 delta-clpP, growth: N-lim chemostat, doubling time 6 h.
Where [5] appears, read: E. coli NCM3722 delta-lon, growth: N-lim chemostat, doubling time 6 h.
Setting [6] is: E. coli NCM3722 delta-smpB, growth: N-lim chemostat, doubling time 6 h.
Where [7] appears, read: wild type E. coli NCM3722, growth: C-lim chemostat, doubling time 3 h.
Setting [8] is: wild type E. coli NCM3722, growth: C-lim chemostat, doubling time 6 h.
Where [9] appears, read: wild type E. coli NCM3722, growth: C-lim chemostat, doubling time 12 h.
Where [10] appears, read: wild type E. coli NCM3722, growth: N-lim chemostat, doubling time 6 h.
Where [11] appears, read: wild type E. coli NCM3722, growth: P-lim chemostat, doubling time 6 h.
Where [12] appears, read: wild type E. coli NCM3722, growth: P-lim chemostat, doubling time 12 h.

± gives the standard deviation of the averaged measurements.

Regarding “MSQLNSVWVFSDNPERYAELFGGAQQWGQQVYAIVQNTDQAQAVMPYGPKCLYVLAQNDALQRTENYAESIAALLKDKHPAMLLLAATKRGKALAARLSVQLNAALVNDATAVDIVDGHICAEHRMYGGLAFAQEKINSPLAIITLAPGVQEPCTSDTSHQCPTETVPYVAPRHEILCRERRAKAASSVDLSKAKRVVGVGRGLAAQDDLKMVHELAAVLNAEVGCSRPIAEGENWMERERYIGVSGVLLKSDLYLTLGISGQIQHMVGGNGAKVIVAINKDKNAPIFNYADYGLVGDIYKVVPALISQLSR”, the “total protein half-life in vivo” value by setting is: under setting [1], 5.37 ± 0.057 h; under setting [2], 4.24 h; under setting [3], 6.04 h.

Turning to “MLQSNEYFSGKVKSIGFSSSSTGRASVGVMVEGEYTFSTAEPEEMTVISGALNVLLPDATDWQVYEAGSVFNVPGHSEFHLQVAEPTSYLCRYL [P0C037]”, the “total protein half-life in vivo” value is 5.23 ± 0.64 h under setting [1]; 3.8 ± 0.061 h under setting [4]; 3.59 ± 0.28 h under setting [2]; 4.706 ± 0.03 h under setting [5]; 3.46 ± 0.4 h under setting [6]; 2.75 ± 0.14 h under setting [7]. For the same sequence, the “total protein half-life in vivo” value under setting [8] turned out to be 5.02 ± 0.079 h; the “total protein half-life in vivo” value under setting [9] was 9.73 ± 2.5 h; the “total protein half-life in vivo” value under setting [10] came out at 3.78 ± 0.38 h; the “total protein half-life in vivo” value under setting [3] was found to be 5.6 h; the “total protein half-life in vivo” value under setting [11] was 4.25 ± 0.35 h; the “total protein half-life in vivo” value under setting [12] is 6.87 ± 0.11 h.

Consider “MANFFIDRPIFAWVLAILLCLTGTLAIFSLPVEQYPDLAPPNVRVTANYPGASAQTLENTVTQVIEQNMTGLDNLMYMSSQSSGTGQASVTLSFKAGTDPDEAVQQVQNQLQSAMRKLPQAVQNQGVTVRKTGDTNILTIAFVSTDGSMDKQDIADYVASNIQDPLSRVNGVGDIDAYGSQYSMRIWLDPAKLNSFQMTAKDVTDAIESQNAQIAVGQLGGTPSVDKQALNATINAQSLLQTPEQFRDITLRVNQDGSEVRLGDVATVEMGAEKYDYLSRFNGKPASGLGVKLASGANEMATAELVLNRLDELAQYFPHGLEYKVAYETTSFVKASIEDVVKTLLEAIALVFLVMYLFLQNFRATLIPTIAVPVVLMGTFSVLYAFGYSVNTLTMFAMVLAIGLLVDDAIVVVENVERIMSEEGLTPREATRKSMGQIQGALVGIAMVLSAVFVPMAFFGGTTGAIYRQFSITIVAAMVLSVLVAMILTPALCATLLKPLKKGEHHGQKGFFAWFNQMFNRNAERYEKGVAKILHRSLRWIVIYVLLLGGMVFLFLRLPTSFLPLEDRGMFTTSVQLPSGSTQQQTLKVVEQIEKYYFTHEKDNIMSVFATVGSGPGGNGQNVARMFIRLKDWSERDSKTGTSFAIIERATKAFNQIKEARVIASSPPAISGLGSSAGFDMELQDHAGAGHDALMAARNQLLALAAENPELTRVRHNGLDDSPQLQIDIDQRKAQALGVAIDDINDTLQTAWGSSYVNDFMDRGRVKKVYVQAAAPYRMLPDDINLWYVRNKDGGMVPFSAFATSRWETGSPRLERYNGYSAVEIVGEAAPGVSTGTAMDIMESLVKQLPNGFGLEWTAMSYQERLSGAQAPALYAISLLVVFLCLAALYESWSVPFSVMLVVPLGVIGALLATWMRGLENDVYFQVGLLTVIGLSAKNAILIVEFANEMNQKGHDLFEATLHACRQRLRPILMTSLAFIFGVLPMATSTGAGSGGQHAVGTGVMGGMISATILAIYFVPLFFVLVRRRFPLKPRPE”, for which the “total protein half-life in vivo” value runs as follows: under setting [4], 6.56 ± 0.62 h; under setting [2], 6.24 ± 0.45 h; under setting [5], 6.05 ± 0.57 h; under setting [6], 5.38 ± 0.37 h; under setting [9], 12 ± 2.9 h; under setting [10], 6.06 ± 0.82 h. Moreover, the “total protein half-life in vivo” value came to 12.3 ± 0.86 h under setting [3] and 6.36 ± 0.17 h under setting [11].

For the sequence “MNTVRSEKDSMGAIDVPADKLWGAQTQRSLEHFRISTEKMPTSLIHALALTKRAAAKVNEDLGLLSEEKASAIRQAADEVLAGQHDDEFPLAIWQTGSGTQSNMNMNEVLANRASELLGGVRGMERKVHPNDDVNKSQSSNDVFPTAMHVAALLALRKQLIPQLKTLTQTLNEKSRAFADIVKIGRTHLQDATPLTLGQEISGWVAMLEHNLKHIEYSLPHVAELALGGTAVGTGLNTHPEYARRVADELAVITCAPFVTAPNKFEALATCDALVQAHGALKGLAASLMKIANDVRWLASGPRCGIGEISIPENEPGSSIMPGKVNPTQCEALTMLCCQVMGNDVAINMGGASGNFELNVFRPMVIHNFLQSVRLLADGMESFNKHCAVGIEPNRERINQLLNESLMLVTALNTHIGYDKAAEIAKKAHKEGLTLKAAALALGYLSEAEFDSWVRPEQMVGSMKAGR”, the “total protein half-life in vivo” value is, setting by setting: under setting [1], 4.65 ± 0.1 h; under setting [4], 4.64 ± 0.49 h; under setting [2], 4.42 ± 0.081 h; under setting [5], 4.69 ± 0.13 h; under setting [6], 4.11 ± 0.091 h; under setting [7], 3.18 ± 0.23 h. The “total protein half-life in vivo” value under setting [8] worked out at 5.9 ± 0.12 h; the “total protein half-life in vivo” value under setting [9] amounted to 9.94 ± 0.14 h; the “total protein half-life in vivo” value under setting [10] came to 4.59 ± 0.14 h; the “total protein half-life in vivo” value under setting [3] was 7.19 ± 0.16 h; the “total protein half-life in vivo” value under setting [11] was 5.82 ± 0.21 h; the “total protein half-life in vivo” value under setting [12] is 12.6 ± 0.33 h.

Turning to “MSVMLQSLNNIRTLRAMAREFSIDVLEEMLEKFRVVTKERREEEEQQQRELAERQEKISTWLELMKADGINPEELLGNSSAAAPRAGKKRQPRPAKYKFTDVNGETKTWTGQGRTPKPIAQALAEGKSLDDFLI [P0ACG1]”, the “total protein half-life in vivo” value is 7.04 ± 1.3 h under setting [1]; 6.38 ± 0.2 h under setting [4]; 6.63 ± 0.19 h under setting [2]; 7.2 ± 0.27 h under setting [5]; 5.86 ± 0.72 h under setting [6]; 3 ± 0.032 h under setting [7]. Also, the “total protein half-life in vivo” value came out at 5.941 ± 0.033 h under setting [8]; 8.33 ± 0.14 h under setting [9]; 4.94 ± 0.73 h under setting [10]; 12 ± 4 h under setting [3]; 5.04 ± 1.5 h under setting [11]; 11 ± 0.95 h under setting [12].

Consider “MNLTLTRRLWMGFALMALLTLTSTLVGWYNLRFISQVEKDNTQALIPTMNMARQLSEASAWELFAAQNLTSADNEKMWQAQGRMLTAQSLKINALLQALREQGFDTTAIEQQEQEISRSLRQQGELVGQRLQLRQQQQQLSQQIVAAADEIARLAQGQANNATTSAGATQAGIYDLIEQDQRQAAESALDRLIDIDLEYVNQMNELRLSALRVQQMVMNLGLEQIQKNAPTLEKQLNNAVKILQRRQIRIEDPGVRAQVATTLTTVSQYSDLLALYQQDSEISNHLQTLAQNNIAQFAQFSSEVSQLVDTIELRNQHGLAHLEKASARGQYSLLLLGMVSLCALILILWRVVYRSVTRPLAEQTQALQRLLDGDIDSPFPETAGVRELDTIGRLMDAFRSNVHALNRHREQLAAQVKARTAELQELVIEHRQARAEAEKASQAKSAFLAAMSHEIRTPLYGILGTAQLLADNPALNAQRDDLRAITDSGESLLTILNDILDYSAIEAGGKNVSVSDEPFEPRPLLESTLQLMSGRVKGRPIRLATAIADDMPCALMGDPRRIRQVITNLLSNALRFTDEGYIILRSRTDGEQWLVEVEDSGCGIDPAKLAEIFQPFVQVSGKRGGTGLGLTISSRLAQAMGGELSATSTPEVGSCFCLRLPLRVATAPVPKTVNQAVRLDGLRLLLIEDNPLTQRITIEMLKTSGAQIVAVGNAAQALETLQNSEPFAAALVDFDLPDIDGITLARQLAQQYPSLVLIGFSAHVIDETLRQRTSSLFRGIIPKPVPREVLGQLLAHYLQLQVNNDQSLDVSQLNEDAQLMGTEKIHEWLVLFTQHALPLLDEIDIARASQDSEKIKRAAHQLKSSCSSLGMHIASQLCAQLEQQPLSAPLPHEEITRSVAALEAWLHKKDLNAI”, for which the “total protein half-life in vivo” value under setting [1] turned out to be 3.75 h; the “total protein half-life in vivo” value under setting [4] turned out to be 4.08 h; the “total protein half-life in vivo” value under setting [5] came to 4.54 ± 0.12 h; the “total protein half-life in vivo” value under setting [6] is 4.12 ± 0.42 h; the “total protein half-life in vivo” value under setting [7] is 2.81 h; the “total protein half-life in vivo” value under setting [9] turned out to be 6.76 h. The “total protein half-life in vivo” value runs as follows: under setting [10], 5.462 ± 0.037 h; under setting [3], greater than 16 h; under setting [11], 6.79 ± 1.1 h; under setting [12], 10.3 ± 0.94 h.

For the origin of these results see the supplement of paper PMC11246515.
